Results on two sequences are retold here after publication PMC9239190.

Residue numbers refer to the chain shown, from its start.

For series [1], the target named is T1, AdpA (Streptomyces coelicolor) (UniProt Q9L062).
T1 sequence: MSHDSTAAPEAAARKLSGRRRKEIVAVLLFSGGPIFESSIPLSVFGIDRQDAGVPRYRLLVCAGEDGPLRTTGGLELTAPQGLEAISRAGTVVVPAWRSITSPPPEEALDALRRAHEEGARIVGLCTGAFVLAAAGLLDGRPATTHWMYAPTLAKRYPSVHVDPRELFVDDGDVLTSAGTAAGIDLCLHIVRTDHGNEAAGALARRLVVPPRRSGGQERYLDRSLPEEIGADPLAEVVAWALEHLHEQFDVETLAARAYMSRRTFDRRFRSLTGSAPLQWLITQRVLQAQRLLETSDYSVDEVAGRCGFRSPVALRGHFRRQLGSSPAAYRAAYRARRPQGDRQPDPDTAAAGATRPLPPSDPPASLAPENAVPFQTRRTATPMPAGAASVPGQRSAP
The series can be described thus: EMSA. The conditions noted are these: EMSA: 20 mM Tris-HCl, 2 mM EDTA, 20 mM KCl, 0.5 mM DTT, pH 8.0, 30 C 20 min, 16.5-22 nM probe; FP: 10 mM Tris-HCl, 75 mM NaCl, pH 7.5, 37 C 15 min, 1 nM FAM ….

Series [2] has as its target T2, AdpA C62S C62S (Streptomyces coelicolor) (UniProt Q9L062).
T2 sequence: T1 sequence with C62S
The series can be described thus: EMSA. Conditions: EMSA: 20 mM Tris-HCl, 2 mM EDTA, 20 mM KCl, 0.5 mM DTT, pH 8.0, 30 C 20 min, 16.5-22 nM probe; FP: 10 mM Tris-HCl, 75 mM NaCl, pH 7.5, 37 C 15 min, 1 nM FAM …. For orientation: A gel shift assay detects complexes by their altered migration in electrophoresis.

Regarding “ACACATCCCGCATCGGTGATTACATGGACACGTCCCAATAAGTTGAATCTCATCTGCGCCCCCGTCGAGATTCTCCGTCTCCTGGGGGCGACAATAACAGGCCTACTCAACAGATTTCAATGTGCTTGCCGTCACAAGCGATCTCCTATTGATCAAAAATTAATCAGTGCAGCGAGCTGCACTGATTAATTTTTGCTGGATTTTACCGAGAGGCAGTGGTCGAGGCTTCCGAATCAATAGAATCTGGCATTCCTGATACGGCTGGGTCC (double strand) [PactII-4 probe]”, the binding entry in series [1] is on record as “binds”. Take “GCACTCCAGTCGGTTACCCAGCCCATACCGGCGCCGTCCTCTCCCGAATCGAGGCTCCCCCACGGCGGCAGCGGCATATTCACCGCCGCCAGTTGAGGACGTTACGGAAGGTGGGCACAGCGCAACACCCCCTTCGGGCCCAATCTTGAATGGCCCGAACGGACTATGGGTAAGCGGCAGATCACCCGGGGGAGTGAGCTGGCGACATGCGCGACGATCCCGACATTCAGGTCATCTCTGTTGCGCCACAACGGACACCGATTGACACACGAGGCGGATTCGGA (double strand) [PwblA probe]”: the binding entry in series [1] and in series [2] was “binds” in each case.
